Results published in the domain aggregation screens of Martell et al. (2025).

Assay: soluble fraction after stress (log2 fold change); higher = more stays soluble; pooled small domains, quantitative proteomics
Settings: stress: 50 degC
Method in brief: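 Quantitative proteomics served as the high-throughput read-out for pooled custom libraries of small protein domains. Each was stressed at 50°C. Aggregation propensity is expressed as the base-two log fold change in soluble protein after stress. A higher value means a larger share of the protein remains in solution.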

Sequence	soluble fraction (log2)
HMYEENFSKIKNDISTIFKRHKISFTNNFISHLSSVFNTDSLTNKMELEKLDSFLINNKKVTENELLKFII	-0.025
HMTYSEEEIERDLYVRGTLYQIGDLVENKIDGTSGEIVRRGPNYVQYSDGENFYKAFLHSIQEV	-0.106
HMNNFNVVVGKAIKNSFNTRENYITINAGKVLGIKTDMGVINDKGIVGIVEKTSKDFATIQSVLNIKS	0.00115
HMSQIAENNQKYVGTIQKVLVEGTSKNNDDMLTGRTDSNKVVIFEGDKKLIGNMVELKIVSEHMWYLKGEL	-0.0348
HMKDMKISTKNLLQELAKNYPDQTSFRKNVIETTARAMGYTGKDFYPLLTTDNRVKIGTYDLATFLRSI	-0.718
HMDQINNDLRKLIEFLPEDQKTVLKMRHFQEMSFKEIAKATGVSINTALGRMRYALINLRKLIEENEI	-1.41
HMNDIDRFIEALIEQDTLPGTNSRINEDVISEMKMMTSVEDIKAYAIATVGLTGGQVNNALINSGL	-0.0823
HMNSNKFANAAAVAVAEKPADSYNPLFIYGPSGVGKTHLLYAIANEIHKHHPDYNIVYIKGDQFTNELIN	-0.0439
HMALENTDLYAHLRLSHTASVPEIQAALSARVKHMPLQTWLLARKWLLHPRLRERYDGMWSVRFGA	-2.62
HMNSVSARRSAAITAISTGRIHSQEDLVQALKKAGYPVTQATASRDIEEIGAVRIRNQKGEMVYAIS	0.264
HMFYWTDLIGLDVINTADERLGKVVGLIETGANAVLRVMGDDQVERLLPFGSAVVLTVEKEAGQIRVEW	-0.89
HMFVGVDMAVKEEIGKEGVAFTDLRPAGKVSIGDDVYDAVSETGAFITRGTSVRVLKYQAGQVYVVK	-0.154
HMRDYKTALQEWVQRTPGQPIAYRLVDELGPDHARVFVMEVTVGGQSAGQGRGRTKKEAEQLAARAALEKL	-0.0907
HMPTTRPEAEAHYETHQRYHDLQIDVEGREAFKVATGSLTLVQEFDEKDDYDLSIPTPRSPAILLTT	0.0218
HMGRKEIIVPNLLGKYAIEAGTILKNAGLLEGQAREENSDTYPAGQIMDQFPKANTPANENDKVDYVVSI	≥ 0.62
HMEMELNHVARRAGRLSGFLKGELRLSTGLMNRLKWSNAILVNGKPARTNAQVEPGDRITVILD	-0.976
HMKSVQIPQSITVKEFSQAIEVSVADVIKKLMSMGVMVSQNKEINVDTAILVGEEFGVTVNVA	0.0996
HMAKINFTSDAIDIGMVTRNDIEMLSFYQNVLGLTKDMEIPFPGLGVVNKLSFGSGFIKILVL	-0.0122
HMGMNKEHFIIELKIYLKALNPKDQAIILAKYKALFDARVAEGETEEQVAKSLGKPRVIAEEILKEQGIE	-0.236
HMKGSIFLDEATKMVDNSALKSLNTFLEEYARETNNQIFLISHQETPAEVTQIKLKKVGGETSYE	0.124
HMLSNLYAVLGVGRRATPDEITAAFDAWNARADAGEPIDDPLWERVRYAWDVLSSPSRRDLYDSLVDDATG	-1.71
HMKVYIKDISDLSDKLKSLLIENDIDDSNKLFEVEDQVLLEIKGLGSKTIDKIKDIVTEYLKKNN	-0.218
HMSEQVTMIDVEGKTETEAKKALEDLGLKVEITYESADAAAGTVIGQDVKAGSTVSEGSRVTLTVSGQ	0.0626
HMNREYELTAEESGQRLDKYLAGEMTDLSRSRIKELVQAGEILVNGKKSKVSYKVQKDDLIQVIVLPLE	-0.285
HMYVADVVGMGIKDALYILENQGLRVVFTGKGVVKNQSIAVGEKIIKGEKIVLML	-1.7
HMGFVTVTEVDTTADLKLARVYVSVLGPEEQWAKSFTALESARGFVWNWLRKHLDLRVTPQLAF	-0.984
HMTDLNDTQIKILELLSADASLSAAKMAGQLGIAGRNVEANIKKLKEKGILIRHGSPKSGYWEIVN	-0.0982
HMSNLKKRRLEKNLTLDDVGKLVGVSAATISRWESGDIENMRSDKIVKLANALEISPAVILGW	-0.0215

Sequence	soluble fraction (log2)
HMTSRWEIGYNVAKKYYDEHGNLDVERAVYDNFELKKWLNTQRYKNSAGTLAEKYKIKLDELGMNWER	0.0505
HMRFKPLAEILAAVQTRYAGRVLDVELDRDQAGRNVYEVKLLAADGSRREIHIDAVTGKEVSL	-0.0325
HMNAMKPVLTVSLGVHTDSLSRRLNEEGIIYRWQQAASEQLLLVDSESSSERIAELIHDWRLEQSSS	-0.0169
HMGGEEINMINLVGLSQSEAENQLAKLKLKIGQVTAEYSDKPSGTVLKQSISANNKVKKGADIDIVVSKG	0.126
HMNNQVTFSKFLNEVEDGRVVEVNIQGNNITGVLSDGSKFKTFSPNYPNLVEKLSEKGVSINASPL	0.1
HMGEGTAVGKALKFLAAQGKKFAPELLDMAGSLTGVEALSKLGDAIKGDPELSELDKRILLAELETDAV	-0.0713
HMENIDVGQDYKVTMNTIQNLMKTGLVTGTQYKELLREMGVHSGMGAITAQQHQIALDFLNKTMDSA	0.285
HMGESVQVPSYVGMGFREAARKARARDFGVAVSDSIYVPGKPPGEIIAQDPKAESRVKEGRTIYFTVAK	0.0425
HMDDISLEEIKYISSKLETKVNEIEELLVRYYDGETNEAEEKELKEFFAQADVPAHLLAEKRLFMQLASQ	-0.0772
HMNALREVNTSILNVRSGAGTNYSKIGSLTQATRVSVISESNGWSKINYNGKVGYVSSQYLS	-0.502
HMDFMNSEIKKIVEDLKLTLQSLNYTKNEIKSILPVINKETDNLIKKEKYASFENLLRLAMNHLDNN	-0.462
HMSGPFTELTPREREILSHLAEGQSNKVIARHLQISDGTVKLHVKAILRKLEVHSRVEAAVMAVEHGV	-1.96
HMQSITAGDKVRVKNYTVSGGKKRGKVYGGAGTFVVYYEKYDVISVTGDRVVIGIGKAVTAAVHIDDLEK	-1.15
HMNMSVVEKVIQQISNPGRDSLIPILQAVQEEEGFISRESVIEIGKALDLPASKIYGVATFYNQFR	-0.338
HMEILTLEELKRLMAKAKLKQNQISGHAGVSKQQISMILAGKRNITKDVSDNLKANLAEYFP	-0.462
HMRTEGNLGAKVRVLRRSQGMTQAELARRLGISPSYLNLIEHNRRSFTADLLVKLAKILPVNLKT	-1.36
HMVISAKRMQDRRDSILDAAREAFARAGFEGTSIADIARRAGVSDGLVYRYFASKRDLLNAVLTA	-0.83
HMSQRINLNSASIEDMQSLDISNEKIDSIIDYRNRYGNIHNIYELLKIPGITIGDIHSIRNAVTVEIPH	-0.112
HMGPNSVPDLRGKSLRQAMKMVNDLELKAIFEGEGIVVGQVPAPGKPVPETKILKITLSLEPY	-0.109
HMKEIDVPNVVGASENAARKLLESYGFQVEVQWENGERVDNAVVKSYSPNGSAKSGSTVTIVLGT	0.062
HMESYWVVLRPMAAGTQIGANDLGYRSVALGAAAKNYLAASTNPIGSITRRRLVAGELLQGSSLTDDARA	-0.873
HMSASTGTVSYKSGATTVWNSPSWHQVKRYVTFGDTVQLLGKTVDQNGATWYKVGDNQWIPELYLNVAG	-0.508
HMSKTEEIAYTTFVKYLENKDIEEVYLGNNAKIKVILKDGREMITDNPRTADFKKDLLLHDIKVVEKT	0.219
HMNVAVPTPADKRKVRVMKADINAKLRVNDANGAYAVYEELKEWVTLKGFTEWNDDLSKLSETMGSMKRKV	-0.0289
HMTALAVGDRVKMDKSATIYGTMRKFAAWVYATKLYVRGIDGNRVVVSTLKSGAITGAVDKKHLTK	-1.12
HMENNIPANIKALIISYVNQNYPGAVIHSIERNSNGTYDVEIYYNNREYDLLFDAQGNFISGNVDDQ	0.0611
HMKESRFDYDAVLLYSDKDSITEVKDAVQHLTKEFGSVFTTKKIPEKATFGKLFRIEKGEVNIIEDN	-0.0248
